B1: PVR-Ig fusion protein (Fc fusion, UniProt P15151 27-343, looked up)
chain: GDVVVQAPTQVPGFLGDSVTLPCYLQVPNMEVTHVSQLTWARHGESGSMAVFHQTQGPSYSESKRLEFVAARLGAELRNASLRMFGLRVEDEGNYTCLFVTFPQGSRSVDIWLRVLAKPQNTAEVQKVQLTGEPVPMARCVSTGGRPPAQITWHSDLGGMPNTSQVPGFLSGTVTVTSLWILVPSSQVDGKNVTCKVEHESFEKPQLLTVNLTVYYPPEVSISGYDNNWYLGQNEATLTCDARSNPEPTGYNWSTTMGPLPPFAVAQGAQLLIRPVDKPINTTLICNVTNALGARQAELTVQVKEGPPSEHSGISRN
notes: Bought (R&D Systems); also called PVR-Ig protein; not shown: Ig part, detected with anti-human IgG Fc

Legend:
[1] = target: T1, KIR2DL5A*005 allele expressed on 3T3 cells (human); assay: flow cytometry, PVR-Ig on 3T3 cells expressing KIR2DL5 alleles
T1 construct: also called 2D5A*005
Experimental: (§1) FIG. 10A-E: Allelic polymorphism affected PVR binding of KIR2DL5. (A) Flow cytometric analysis of PVR-Ig or CD112-Ig (open) or control hIg (shaded) binding to KIR2DL5/3T3. (B) Flow cytometric analysis of PVR-Ig binding to KIR2DL5/3T3 in the presence of increasing concentrations of F8B30. (C) KIR2DL5 bound to different sites of PVR from other receptors. PVR-Ig protein was preincubated with indicated His-tagged protein and then stained KIR2DL5/3T3 cells. […] (D) Flow cytometric analysis of PVR-Ig (open) or control hIg (shaded) binding on 3T3 cells expressing WT, DO-deleted, or D2-deleted KIR2DL5. Parental 3T3 cells were used as a negative control. (E) Flow cytometric analysis of PVR-Ig or control hIg (shaded) binding on 3T3 cells expressing different KIR2DL5 alleles. In A-E, data are representative of 2 independent experiments.
(§2) Fusion protein cell binding assays. PVR-Ig, CD112-Ig, or hIgG (R&D Systems) was incubated with corresponding 3T3 cells on ice for 45 minutes, followed by incubation with APC- or PE-conjugated anti-human IgG Fc antibody (1:100; clone HP6017, BioLegend) on ice for 30 minutes. Cells were then acquired on an LSR II flow cytometer (BD Biosciences). In the anti-KIR2DL5 mAb blocking assay, KIR2DL5/3T3 cells were preincubated with a serial concentration of anti-KIR2DL5 mAb F8B30 or mIgG1 on ice for 30 minutes. […]

[2] = target: T2, KIR2DL4 expressed on 3T3 cells (human, UniProt Q99706 22-377); assay: flow cytometry, PVR-Ig titrated on KIR2DL4/3T3
T2 construct: whole, on cells; also called KIR2DL4/3T3
Experimental: Specifically, a cell-based binding assay was performed by incubating PVR-Ig fusion protein with KIR2DL5- or KIR2DL4-expressing 3T3 cells. Conversely, KIR2DL5 was selectively bound by PVR, but not by CD112 (also known as nectin-2), another ligand for TIGIT and DNAM-1 in the nectin/nectin-like family (FIG. 10A). Furthermore, anti-KIR2DL5 mAb F8B30 blocked KIR2DL5-PVR interaction (EC₅₀=0.095 μM) (FIG. 10B). The specificity of KIR2DL5 binding to PVR was also evidenced by an intercellular interaction assay, in which 3T3 cells expressing PVR interacted with 3T3 cells expressing KIR2DL5, but not with cells expressing KIR3DL3 (FIG. 18B), a newly identified inhibitory receptor of HHLA2 (Zang, 2022; Wei 2021; Bhatt 2021).
(§3) Fusion protein cell binding assays. PVR-Ig, CD112-Ig, or hIgG (R&D Systems) was incubated with corresponding 3T3 cells on ice for 45 minutes, followed by incubation with APC- or PE-conjugated anti-human IgG Fc antibody (1:100; clone HP6017, BioLegend) on ice for 30 minutes. Cells were then acquired on an LSR II flow cytometer (BD Biosciences). In the anti-KIR2DL5 mAb blocking assay, KIR2DL5/3T3 cells were preincubated with a serial concentration of anti-KIR2DL5 mAb F8B30 or mIgG1 on ice for 30 minutes. After washing, the cells were then incubated with 20 μg/mL PVR-Ig or hIgG on ice for 45 minutes, followed by incubation with APC anti-human IgG Fc antibody on ice for 30 minutes. […]

PVR-Ig fusion protein = target: B1; assay: flow cytometry, PVR-Ig on 3T3 cells expressing KIR2DL5 alleles
Experimental: as §1, §2

[3] = target: T3, KIR2DL5 wild type (KIR2DL5A*001) expressed on cells (human, UniProt Q8N109 22-375); assay: flow cytometry, fusion protein on KIR2DL5/3T3, anti-human IgG Fc detection
T3 construct: UniProtKB Q8N109 and NP_065396.1 are printed for this entry; In the SHP-1/SHP-2 co-immunoprecipitation the cells were treated with pervanadate and the receptor was tyrosine-phosphorylated; also called KIR2DL5/3T3; WT KIR2DL5
Experimental: PVR-Ig protein was preincubated with indicated His-tagged protein and then stained KIR2DL5/3T3 cells. […] (D) Flow cytometric analysis of PVR-Ig (open) or control hIg (shaded) binding on 3T3 cells expressing WT, DO-deleted, or D2-deleted KIR2DL5. Parental 3T3 cells were used as a negative control. (E) Flow cytometric analysis of PVR-Ig or control hIg (shaded) binding on 3T3 cells expressing different KIR2DL5 alleles. In A-E, data are representative of 2 independent experiments.
as §3

T2 sequence (Q99706 22-377): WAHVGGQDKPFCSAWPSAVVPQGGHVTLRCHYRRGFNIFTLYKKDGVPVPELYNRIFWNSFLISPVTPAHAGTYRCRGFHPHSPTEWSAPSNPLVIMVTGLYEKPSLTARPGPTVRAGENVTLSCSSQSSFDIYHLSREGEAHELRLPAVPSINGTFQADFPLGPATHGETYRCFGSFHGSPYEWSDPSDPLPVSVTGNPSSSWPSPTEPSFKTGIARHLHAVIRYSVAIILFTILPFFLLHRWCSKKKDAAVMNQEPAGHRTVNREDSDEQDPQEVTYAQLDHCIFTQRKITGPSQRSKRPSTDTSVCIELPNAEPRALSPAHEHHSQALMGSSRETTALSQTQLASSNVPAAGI

## B1
[1]
  binding result: no binding
[2]
  binding result: no binding (tested: 1.28 µM)

B2: KIR2DL5B*003 allele expressed on 3T3 cells (receptor)
chain: HEGGQDKPLLSAWPSAVVPRGGHVTLLCRSRLGFTIFSLYKEDGVPVPELYNKIFWKSILMGPVTPAHAGTYRCRGSHPRSPIEWSAPSNPLVIMVTGLFGKPSLSAQPGPTVRTGENVTLSCSSRSSFDMYHLSREGRAHEPRLPAVPSVNGTFQADFPLGPATHGGTYTCFGSLHDSPYEWSDPSDPLLVSVTGNSSSSSSSPTEPSSKTGIRRHLHILIGTSVAIILFIILFFFLLHCCCSNKKNAAVMDQEPAGDRTVNREDSDDQDPQEVTYAQLDHCVFTQTKITSPSQRPKTPPTDTTMYMELPNAKPRSLSPAHKHHSQALRGSSRETTALSQNRVASSHVPAAGI
PVR-Ig fusion protein
  binding result: no binding

B3: CD112-Ig fusion protein (Fc fusion, UniProt Q92692 32-360, looked up)
chain: QDVRVQVLPEVRGQLGGTVELPCHLLPPVPGLYISLVTWQRPDAPANHQNVAAFHPKMGPSFPSPKPGSERLSFVSAKQSTGQDTEAELQDATLALHGLTVEDEGNYTCEFATFPKGSVRGMTWLRVIAKPKNQAEAQKVTFSQDPTTVALCISKEGRPPARISWLSSLDWEAKETQVSGTLAGTVTVTSRFTLVPSGRADGVTVTCKVEHESFEEPALIPVTLSVRYPPEVSISGYDDNWYLGRTDATLSCDVRSNPEPTGYDWSTTSGTFPTSAVAQGSQLVIHAVDSLFNTTFVCTVTNAVGMGRAEQVIFVRETPNTAGAGATGG
notes: Bought (R&D Systems); also called nectin-2; not shown: Ig part, detected with anti-human IgG Fc
[3]
  binding result: no binding
